Source: publication PMC9823007

Molecular target: NyxA (for SEC-MALS and SAXS) (Brucella abortus 2308) (UniProt Q2YPD9)
Test: SEC-MALS

NyxA (for SEC-MALS and SAXS) (from UniProt Q2YPD9 1-129) (natural protein)
stoichiometry N: 2
